Assay results: the supplement of paper PMC9876800

Test system: peptide library, one residue held at a place counted from the S/T acceptor
Assay: relative phosphorylation of the sub-library (ratio to the mean residue at this position); human; higher = residue favoured
Method in brief: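 Purified recombinant kinases, either human or orthologue constructs, were incubated in 384-well plates with biotinylated degenerate peptide sub-libraries. Each sub-library fixed one residue at one position around a central Ser/Thr. Peptides at 50 μM and 50 μM ATP spiked with γ-32P-ATP were used for 90 min under kinase-specific conditions, and spots on streptavidin membranes were phosphorimaged and quantified by densitometry. Relative sub-library phosphorylation is expressed as a ratio to the mean residue at that position.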

Chain of NEK6, construct: Full length (Q9HC98 whole entry, looked up): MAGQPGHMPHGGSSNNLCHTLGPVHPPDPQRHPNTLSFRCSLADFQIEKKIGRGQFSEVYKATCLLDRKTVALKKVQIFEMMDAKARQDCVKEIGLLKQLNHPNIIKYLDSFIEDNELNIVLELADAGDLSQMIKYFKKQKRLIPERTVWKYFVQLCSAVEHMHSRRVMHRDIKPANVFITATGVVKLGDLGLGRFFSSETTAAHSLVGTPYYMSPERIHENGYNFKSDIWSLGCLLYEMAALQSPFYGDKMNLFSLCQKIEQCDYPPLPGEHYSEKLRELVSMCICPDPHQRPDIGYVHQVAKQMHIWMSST
Chain of NEK1, construct: aa1-505 (Q96PY6 1-505, looked up): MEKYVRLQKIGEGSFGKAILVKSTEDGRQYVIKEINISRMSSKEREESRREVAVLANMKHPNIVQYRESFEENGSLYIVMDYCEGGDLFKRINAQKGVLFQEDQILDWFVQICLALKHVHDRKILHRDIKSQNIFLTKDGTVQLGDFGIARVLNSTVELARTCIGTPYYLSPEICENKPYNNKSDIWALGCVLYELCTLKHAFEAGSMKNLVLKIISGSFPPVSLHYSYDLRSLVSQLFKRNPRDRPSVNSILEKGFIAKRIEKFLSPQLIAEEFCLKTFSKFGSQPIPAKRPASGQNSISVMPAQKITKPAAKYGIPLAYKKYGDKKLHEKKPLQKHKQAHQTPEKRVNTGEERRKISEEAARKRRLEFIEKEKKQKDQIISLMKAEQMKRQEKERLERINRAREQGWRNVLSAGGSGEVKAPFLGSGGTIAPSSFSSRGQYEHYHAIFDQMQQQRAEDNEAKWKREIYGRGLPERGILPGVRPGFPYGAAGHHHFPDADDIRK
Chain of NEK4, construct: Full length (P51957 whole entry, looked up): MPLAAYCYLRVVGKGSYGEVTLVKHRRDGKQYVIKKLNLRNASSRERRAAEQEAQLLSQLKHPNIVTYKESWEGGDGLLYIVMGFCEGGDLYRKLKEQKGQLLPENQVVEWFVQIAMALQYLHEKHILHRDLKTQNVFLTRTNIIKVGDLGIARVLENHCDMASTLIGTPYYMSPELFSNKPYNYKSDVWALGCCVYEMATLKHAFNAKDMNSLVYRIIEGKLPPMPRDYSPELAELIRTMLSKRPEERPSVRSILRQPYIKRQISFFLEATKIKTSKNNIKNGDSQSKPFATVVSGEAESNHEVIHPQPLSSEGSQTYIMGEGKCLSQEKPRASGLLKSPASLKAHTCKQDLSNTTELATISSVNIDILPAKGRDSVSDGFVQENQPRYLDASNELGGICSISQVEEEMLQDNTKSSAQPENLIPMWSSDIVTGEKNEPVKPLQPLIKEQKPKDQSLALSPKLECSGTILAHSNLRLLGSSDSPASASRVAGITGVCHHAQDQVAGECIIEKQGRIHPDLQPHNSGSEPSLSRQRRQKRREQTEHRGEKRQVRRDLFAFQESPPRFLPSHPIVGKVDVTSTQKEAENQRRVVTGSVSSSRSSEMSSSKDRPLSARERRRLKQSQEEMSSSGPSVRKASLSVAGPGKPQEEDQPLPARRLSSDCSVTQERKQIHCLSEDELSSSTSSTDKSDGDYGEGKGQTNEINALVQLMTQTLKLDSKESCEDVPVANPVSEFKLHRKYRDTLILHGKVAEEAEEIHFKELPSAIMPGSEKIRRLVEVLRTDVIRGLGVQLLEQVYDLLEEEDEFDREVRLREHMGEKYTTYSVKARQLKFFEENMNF
Chain of NEK11, construct: Full length (Q8NG66 whole entry, looked up): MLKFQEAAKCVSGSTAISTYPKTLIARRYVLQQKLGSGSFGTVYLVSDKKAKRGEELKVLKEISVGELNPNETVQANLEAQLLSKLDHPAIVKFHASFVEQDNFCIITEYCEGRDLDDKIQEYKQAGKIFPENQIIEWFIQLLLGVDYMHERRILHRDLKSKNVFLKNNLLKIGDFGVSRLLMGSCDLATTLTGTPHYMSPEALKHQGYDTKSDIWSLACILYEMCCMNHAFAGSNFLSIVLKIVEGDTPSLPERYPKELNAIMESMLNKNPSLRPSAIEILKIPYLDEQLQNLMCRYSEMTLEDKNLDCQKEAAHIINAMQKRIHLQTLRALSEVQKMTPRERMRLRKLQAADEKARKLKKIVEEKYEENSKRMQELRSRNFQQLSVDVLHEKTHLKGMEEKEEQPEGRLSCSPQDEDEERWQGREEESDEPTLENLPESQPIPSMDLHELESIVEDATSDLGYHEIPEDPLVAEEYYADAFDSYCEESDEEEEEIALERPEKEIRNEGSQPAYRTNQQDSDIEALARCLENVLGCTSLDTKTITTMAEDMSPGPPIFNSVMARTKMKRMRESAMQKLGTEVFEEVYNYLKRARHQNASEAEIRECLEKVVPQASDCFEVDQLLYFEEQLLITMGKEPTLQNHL

NEK1, construct: aa1-505 (from UniProt Q96PY6)
relative phosphorylation
Conditions | at +1 | at +2 | at +3 | at +4 | at -1 | at -2 | at -3 | at -4 | at -5
A fixed | 0.882 | 1.08 | 0.91 | 1.02 | 1.2 | 1 | 0.996 | 1.04 | 0.968
D fixed | 0.22 | 0.456 | 0.504 | 0.774 | 0.566 | 0.69 | 0.378 | 0.781 | 0.764
E fixed | 0.268 | 0.389 | 0.41 | 0.732 | 0.713 | 0.706 | 0.373 | 0.785 | 0.678
F fixed | 1.36 | 0.744 | 1.2 | 0.804 | 0.891 | 0.98 | 1.61 | 1.06 | 1.15
G fixed | 1.11 | 0.85 | 1.05 | 1.18 | 1.3 | 1.2 | 1.41 | 1.3 | 1.06
H fixed | 1.02 | 1.22 | 1.03 | 1.11 | 1.21 | 1.08 | 1.14 | 0.962 | 1.05
I fixed | 1.27 | 0.769 | 0.991 | 0.792 | 0.424 | 0.849 | 0.571 | 0.844 | 0.858
K fixed | 1.16 | 2.06 | 1.03 | 1.38 | 1.46 | 0.75 | 1.03 | 1.33 | 1.24
L fixed | 1.32 | 0.939 | 1.17 | 1 | 1.08 | 1.58 | 1.82 | 1.12 | 1.1
M fixed | 1.67 | 0.975 | 0.907 | 0.93 | 1.41 | 1.24 | 1.62 | 0.996 | 1.13
N fixed | 0.61 | 1.02 | 0.935 | 0.912 | 1.05 | 1.29 | 0.629 | 0.87 | 0.959
P fixed | 0.142 | 0.95 | 1.12 | 1.15 | 0.558 | 0.677 | 1.25 | 1.14 | 1.4
Q fixed | 1.05 | 0.706 | 0.724 | 1.01 | 0.889 | 1.04 | 0.668 | 0.799 | 0.889
R fixed | 1.51 | 2.21 | 1.63 | 1.38 | 1.57 | 1.27 | 0.919 | 1.08 | 1.15
V fixed | 0.958 | 0.914 | 0.851 | 0.78 | 0.522 | 0.713 | 0.444 | 0.783 | 0.82
W fixed | 1.27 | 0.727 | 1.37 | 1.29 | 0.895 | 1.04 | 1.08 | 1.23 | 0.947
Y fixed | 1.18 | 0.996 | 1.18 | 0.738 | 1.26 | 0.89 | 1.06 | 0.887 | 0.835
pThr fixed | 0.424 | 0.571 | 0.507 | 0.579 | 0.323 | 0.516 | 0.508 | 0.746 | 0.905
pTyr fixed | 0.397 | 0.434 | 0.642 | 0.547 | 0.707 | 0.523 | 0.648 | 0.851 | 1.03

NEK4, construct: Full length (from UniProt P51957)
relative phosphorylation
Conditions | at +1 | at +2 | at +3 | at +4 | at -1 | at -2 | at -3 | at -4 | at -5
A fixed | 0.695 | 0.961 | 0.797 | 0.821 | 1.32 | 0.985 | 1.18 | 1.02 | 0.983
D fixed | 0.169 | 0.409 | 0.375 | 0.693 | 0.63 | 0.601 | 0.422 | 0.811 | 0.797
E fixed | 0.153 | 0.368 | 0.341 | 0.66 | 0.638 | 0.505 | 0.416 | 0.733 | 0.662
F fixed | 1.03 | 0.851 | 1.73 | 1.03 | 0.868 | 1.16 | 1.64 | 1.14 | 1.21
G fixed | 0.921 | 0.795 | 0.91 | 1.16 | 1.25 | 1.16 | 1.2 | 1.32 | 1.04
H fixed | 0.775 | 1.2 | 1.1 | 1.08 | 1.02 | 1.02 | 0.998 | 1.05 | 1.03
I fixed | 1.63 | 0.625 | 0.899 | 0.69 | 0.583 | 0.8 | 0.658 | 0.754 | 0.822
K fixed | 0.974 | 2.01 | 0.977 | 1.56 | 1.4 | 0.902 | 0.985 | 1.17 | 1.16
L fixed | 2.19 | 0.939 | 1.23 | 0.996 | 1.06 | 1.61 | 1.9 | 1.12 | 0.79
M fixed | 2.2 | 1.04 | 1.07 | 0.932 | 1.36 | 1.47 | 1.72 | 0.969 | 0.966
N fixed | 0.592 | 0.86 | 0.652 | 0.92 | 0.935 | 1.43 | 0.674 | 0.913 | 0.962
P fixed | 0.176 | 0.993 | 1.03 | 1.28 | 0.374 | 0.588 | 0.973 | 0.912 | 1.22
Q fixed | 1.02 | 0.971 | 0.842 | 1.08 | 1.09 | 1.01 | 0.766 | 0.916 | 0.983
R fixed | 1.17 | 2.43 | 1.25 | 1.31 | 1.77 | 1.07 | 0.953 | 1.04 | 1.32
V fixed | 0.929 | 0.838 | 0.74 | 0.653 | 0.666 | 0.677 | 0.573 | 0.835 | 0.878
W fixed | 1.44 | 0.722 | 1.62 | 1.25 | 0.925 | 1.18 | 1.02 | 1.31 | 1.11
Y fixed | 0.937 | 0.986 | 1.44 | 0.891 | 1.09 | 0.832 | 0.921 | 1 | 1.08
pThr fixed | 0.423 | 0.506 | 0.526 | 0.476 | 0.332 | 0.64 | 0.735 | 0.793 | 0.867
pTyr fixed | 0.248 | 0.588 | 0.557 | 0.506 | 0.752 | 1.11 | 0.806 | 0.755 | 1.01

NEK6, construct: Full length (from UniProt Q9HC98)
relative phosphorylation
Conditions | at +1 | at +2 | at +3 | at +4 | at -1 | at -2 | at -3 | at -4 | at -5
A fixed | 0.844 | 1.17 | 0.962 | 0.822 | 1.21 | 1.16 | 1.04 | 1.26 | 1.16
D fixed | 0.481 | 0.764 | 0.624 | 0.699 | 1.47 | 2.91 | 0.911 | 2.11 | 2.07
E fixed | 0.344 | 0.325 | 0.564 | 0.578 | 1.96 | 1.89 | 0.611 | 1.18 | 1.15
F fixed | 1.46 | 0.69 | 0.987 | 0.886 | 0.525 | 0.647 | 1.61 | 0.839 | 0.875
G fixed | 1.02 | 1.27 | 1.69 | 1.26 | 0.75 | 1.75 | 1.06 | 1.13 | 1.36
H fixed | 1.2 | 1.23 | 1.13 | 1.02 | 1.13 | 0.982 | 0.792 | 0.894 | 0.979
I fixed | 0.646 | 0.568 | 0.537 | 0.616 | 0.434 | 0.425 | 0.495 | 0.531 | 0.632
K fixed | 0.65 | 1.61 | 1.4 | 1.78 | 1.22 | 0.663 | 0.48 | 0.837 | 0.849
L fixed | 0.886 | 0.443 | 0.767 | 0.593 | 0.72 | 0.612 | 2.04 | 0.735 | 0.747
M fixed | 1.57 | 0.747 | 0.704 | 0.626 | 0.859 | 0.789 | 1.2 | 0.71 | 0.753
N fixed | 1.2 | 1.87 | 1.24 | 0.917 | 1.38 | 1.6 | 0.869 | 1.29 | 1.16
P fixed | 0.367 | 0.985 | 1.12 | 1.4 | 0.326 | 0.521 | 1.78 | 1.32 | 1.09
Q fixed | 1.68 | 0.722 | 1.02 | 1.07 | 1.56 | 0.728 | 0.62 | 0.894 | 0.819
R fixed | 0.986 | 2.23 | 1.4 | 1.4 | 1.51 | 0.663 | 0.463 | 0.869 | 0.685
V fixed | 0.602 | 0.533 | 0.568 | 0.707 | 0.578 | 0.436 | 0.503 | 0.549 | 0.88
W fixed | 1.5 | 0.87 | 1.38 | 1.36 | 0.619 | 0.577 | 1.25 | 1.1 | 1.04
Y fixed | 1.56 | 0.989 | 0.901 | 1.27 | 0.744 | 0.65 | 1.27 | 0.75 | 0.767
pThr fixed | 0.602 | 0.396 | 0.534 | 0.628 | 0.494 | 0.773 | 0.677 | 0.906 | 0.992
pTyr fixed | 0.822 | 0.356 | 0.653 | 0.545 | 2.57 | 1.53 | 1.01 | 1.01 | 0.799

NEK11, construct: Full length (from UniProt Q8NG66)
relative phosphorylation
Conditions | at +1 | at +2 | at +3 | at +4 | at -1 | at -2 | at -3 | at -4 | at -5
A fixed | 0.432 | 0.613 | 0.845 | 0.834 | 0.977 | 1.38 | 1.06 | 0.887 | 1.02
D fixed | 0.25 | 0.395 | 0.499 | 0.597 | 0.64 | 0.742 | 0.568 | 0.73 | 0.677
E fixed | 0.234 | 0.349 | 0.53 | 0.606 | 0.59 | 0.579 | 0.643 | 0.659 | 0.709
F fixed | 2.35 | 0.978 | 1.48 | 0.997 | 0.918 | 1.49 | 1.22 | 1.33 | 1.18
G fixed | 0.494 | 0.664 | 0.797 | 0.876 | 1.57 | 1.28 | 1.01 | 1.2 | 1.36
H fixed | 0.625 | 1.42 | 0.962 | 1.28 | 1.1 | 0.909 | 0.976 | 0.929 | 1.11
I fixed | 2 | 0.549 | 0.797 | 0.497 | 0.491 | 0.542 | 0.671 | 0.724 | 0.866
K fixed | 0.563 | 1.85 | 1.3 | 1.96 | 1.67 | 0.867 | 1.12 | 1.06 | 0.901
L fixed | 1.86 | 0.787 | 1.25 | 0.805 | 0.914 | 0.975 | 1.12 | 0.945 | 0.763
M fixed | 2.27 | 1.06 | 1.2 | 0.824 | 1.42 | 1.06 | 1.4 | 1.07 | 1.13
N fixed | 0.573 | 1.06 | 1.05 | 1.11 | 1.23 | 1.42 | 1.18 | 1.08 | 1.03
P fixed | 0.479 | 0.795 | 0.931 | 1 | 0.558 | 1.05 | 0.971 | 1.08 | 0.927
Q fixed | 0.605 | 0.78 | 0.885 | 1.27 | 0.942 | 0.944 | 0.983 | 1.06 | 0.893
R fixed | 0.494 | 1.93 | 0.864 | 1.02 | 1.53 | 0.991 | 1.2 | 1.12 | 1.23
V fixed | 0.926 | 0.566 | 0.965 | 0.695 | 0.605 | 0.601 | 0.696 | 0.778 | 0.863
W fixed | 1.23 | 1.02 | 1.43 | 1.42 | 0.764 | 1.1 | 0.979 | 1.31 | 1.21
Y fixed | 1.62 | 2.17 | 1.21 | 1.21 | 1.08 | 1.06 | 1.21 | 1.03 | 1.13
pThr fixed | 0.998 | 1.15 | 1.06 | 0.672 | 0.94 | 1.38 | 1.37 | 1.47 | 1.17
pTyr fixed | 0.509 | 0.51 | 0.848 | 0.63 | 1.11 | 0.973 | 1.42 | 0.98 | 1.27
